Measurements as given in article PMC9279154 (Nature, 2022).

B1: Dcr-2(D1217N/D1476N), catalytically inactive mutant (enzyme, Drosophila melanogaster, UniProt A1ZAW0 1-1722, looked up)
chain: MEDVEIKPRGYQLRLVDHLTKSNGIVYLPTGSGKTFVAILVLKRFSQDFDKPIESGGKRALFMCNTVELARQQAMAVRRCTNFKVGFYVGEQGVDDWTRGMWSDEIKKNQVLVGTAQVFLDMVTQTYVALSSLSVVIIDECHHGTGHHPFREFMRLFTIANQTKLPRVVGLTGVLIKGNEITNVATKLKELEITYRGNIITVSDTKEMENVMLYATKPTEVMVSFPHQEQVLTVTRLISAEIEKFYVSLDLMNIGVQPIRRSKSLQCLRDPSKKSFVKQLFNDFLYQMKEYGIYAASIAIISLIVEFDIKRRQAETLSVKLMHRTALTLCEKIRHLLVQKLQDMTYDDDDDNVNTEEVIMNFSTPKVQRFLMSLKVSFADKDPKDICCLVFVERRYTCKCIYGLLLNYIQSTPELRNVLTPQFMVGRNNISPDFESVLERKWQKSAIQQFRDGNANLMICSSVLEEGIDVQACNHVFILDPVKTFNMYVQSKGRARTTEAKFVLFTADKEREKTIQQIYQYRKAHNDIAEYLKDRVLEKTEPELYEIKGHFQDDIDPFTNENGAVLLPNNALAILHRYCQTIPTDAFGFVIPWFHVLQEDERDRIFGVSAKGKHVISINMPVNCMLRDTIYSDPMDNVKTAKISAAFKACKVLYSLGELNERFVPKTLKERVASIADVHFEHWNKYGDSVTATVNKADKSKDRTYKTECPLEFYDALPRVGEICYAYEIFLEPQFESCEYTEHMYLNLQTPRNYAILLRNKLPRLAEMPLFSNQGKLHVRVANAPLEVIIQNSEQLELLHQFHGMVFRDILKIWHPFFVLDRRSKENSYLVVPLILGAGEQKCFDWELMTNFRRLPQSHGSNVQQREQQPAPRPEDFEGKIVTQWYANYDKPMLVTKVHRELTPLSYMEKNQQDKTYYEFTMSKYGNRIGDVVHKDKFMIEVRDLTEQLTFYVHNRGKFNAKSKAKMKVILIPELCFNFNFPGDLWLKLIFLPSILNRMYFLLHAEALRKRFNTYLNLHLLPFNGTDYMPRPLEIDYSLKRNVDPLGNVIPTEDIEEPKSLLEPMPTKSIEASVANLEITEFENPWQKYMEPVDLSRNLLSTYPVELDYYYHFSVGNVCEMNEMDFEDKEYWAKNQFHMPTGNIYGNRTPAKTNANVPALMPSKPTVRGKVKPLLILQKTVSKEHITPAEQGEFLAAITASSAADVFDMERLEILGNSFLKLSATLYLASKYSDWNEGTLTEVKSKLVSNRNLLFCLIDADIPKTLNTIQFTPRYTWLPPGISLPHNVLALWRENPEFAKIIGPHNLRDLALGDEESLVKGNCSDINYNRFVEGCRANGQSFYAGADFSSEVNFCVGLVTIPNKVIADTLEALLGVIVKNYGLQHAFKMLEYFKICRADIDKPLTQLLNLELGGKKMRANVNTTEIDGFLINHYYLEKNLGYTFKDRRYLLQALTHPSYPTNRITGSYQELEFIGNAILDFLISAYIFENNTKMNPGALTDLRSALVNNTTLACICVRHRLHFFILAENAKLSEIISKFVNFQESQGHRVTNYVRILLEEADVQPTPLDLDDELDMTELPHANKCISQEAEKGVPPKGEFNMSTNVDVPKALGDVLEALIAAVYLDCRDLQRTWEVIFNLFEPELQEFTRKVPINHIRQLVEHKHAKPVFSSPIVEGETVMVSCQFTCMEKTIKVYGFGSNKDQAKLSAAKHALQQLSKCDA
notes: Dicer-2 (Dcr-2), Drosophila melanogaster, UniProt A1ZAW0, full length with D1217N and D1476N; also called Dcr-2(DDNN); Dcr-2^DDNN; source: sf9 cells (Bac-to-Bac baculovirus), purified (Ni-NTA, Hitrap Q, 2nd Ni-NTA, SEC)
B2: Drosophila melanogaster Loquacious-PD (Loqs-PD), full length, tag removed (natural protein, UniProt Q9VJY9-4 1-359, looked up)
chain: MDQENFHGSSLPQQLQNLHIQPQQASPNPVQTGFAPRRHYNNLVGLGNGNAVSGSPVKGAPLGQRHVKLKKEKISAQVAQLSQPGQLQLSDVGDPALAGGSGLQGGVGLMGVILPSDEALKFVSETDANGLAMKTPVSILQELLSRRGITPGYELVQIEGAIHEPTFRFRVSFKDKDTPFTAMGAGRSKKEAKHAAARALIDKLIGAQLPESPSSSAGPSVTGLTVAGSGGDGNANATGGGDASDKTVGNPIGWLQEMCMQRRWPPPSYETETEVGLPHERLFTIACSILNYREMGKGKSKKIAKRLAAHRMWMRLQETPIDSGKISDSICGELEGEVSIIQDIDRYEQVSKDFEFIKI
notes: Loquacious-PD (Loqs-PD), Drosophila melanogaster, UniProt M9MRT5, full length (C-terminal residue Ile359); also called DmLoqs-PD; Loqs-PD^FL; source: E. coli BL21 (DE3), purified (Ni-NTA, ULP1 cleavage, 2nd Ni-NTA, SEC)
B3: His-tagged Loqs-PD, wild type (natural protein, Drosophila melanogaster, UniProt Q9VJY9-4 1-359, looked up)
chain: B2 chain
notes: Loquacious-PD (Loqs-PD), Drosophila melanogaster, UniProt M9MRT5, full length; The only construct described is in a modified pET28a with a 6×His-SUMO tag; also called WT; source: E. coli BL21 (DE3), purified
B4: 50 bp palindromic dsRNA (dsRNA)
RNA 1: GAGACUUGGGCAAUGUGACUGCUGAUCAGCAGUCACAUUGCCCAAGUCUCUU
RNA 2: B4 RNA 1
modifications: 5'-monophosphate on both strands

Tests used:
[1] = biological target: the molecule itself; assay: cryo-EM structure; Dcr-2^DDNN–Loqs-PD with 50 bp dsRNA, without ATP: initial dsRNA-binding state (dimer), 3.1 Å
[2] = biological target: B1; assay: as above; details: both partners purified
[3] = biological target: T1, Drosophila melanogaster Dicer-2 (Dcr-2), wild type (Drosophila melanogaster, UniProt A1ZAW0 1-1722); assay: cryo-EM structure; Dcr-2^DDNN–Loqs-PD in the apo state (no dsRNA, no ATP); Dcr-2^DDNN–Loqs-PD with 50 bp dsRNA, ATP and Mg2+ (early-translocation, mid-translocation and active dicing states); WT Dcr-2–Loqs-PD with 50 bp dsRNA, ATP and Mg2+ (post-dicing state); details: both partners purified
T1 construct: Dicer-2 (Dcr-2), Drosophila melanogaster, UniProt A1ZAW0, full length; The pull-down methods call it 'untagged Dcr-2'; also called WT Dcr-2; Dcr-2^WT; source: sf9 cells (Bac-to-Bac baculovirus), purified (Ni-NTA, Hitrap Q, 2nd Ni-NTA, SEC)

[4] = biological target: T1, Drosophila melanogaster Dicer-2 …; assay: pull-down; 1.25 μM His-tagged Loqs-PD and 0.6 μM untagged Dcr-2 mixed on ice for 30 min, then Ni-NTA agarose; 200 mM NaCl, 20 mM Tris pH 8.0, 5% glycerol, 20 mM imidazole, 4 °C, 1 h; SDS–PAGE; details: both partners purified
[5] = biological target: Dcr-2 delta-dsRBD;Loqs-PD (Drosophila melanogaster;Drosophila …, UniProt A1ZAW0;Q9VJY9-4 1-1628;1-359, |); assay: cryo-EM; ATP, Mg2+; no further dsRNA bending; Cryo-EM and EMSA buffers not given in the material; with or without ATP and Mg2+; details: protein: recombinant;recombinant; tags: Ni-NTA purified;6xHis-SUMO removed by ULP1; copies: 1;1; 3' overhang 2 nt (UU) at both ends; 50 bp; self-complementary, 2 copies of one strand
Dcr-2 DDNN;Loqs-PD = Dcr-2 DDNN;Loqs-PD (Drosophila melanogaster;Drosophila …, UniProt A1ZAW0;Q9VJY9-4 1-1722;1-359, D1217N;D1476N|); assay: cryo-EM; no ATP; initial binding state, dimer, 3.1 A; Cryo-EM and EMSA buffers not given in the material; with or without ATP and Mg2+; details: protein: recombinant;recombinant; tags: Ni-NTA purified;6xHis-SUMO removed by ULP1; copies: 1;1; 3' overhang 2 nt (UU) at both ends; 50 bp; self-complementary, 2 copies of one strand
Dcr-2 WT;Loqs-PD = Dcr-2 WT;Loqs-PD (Drosophila melanogaster;Drosophila …, UniProt A1ZAW0;Q9VJY9-4 1-1722;1-359, |); assay: cryo-EM; ATP, Mg2+; post-dicing state, RNA cleaved 21 bp from terminus, 4.6 A; Cryo-EM and EMSA buffers not given in the material; with or without ATP and Mg2+; details: protein: recombinant;recombinant; tags: Ni-NTA purified;6xHis-SUMO removed by ULP1; copies: 1;1; 3' overhang 2 nt (UU) at both ends; 50 bp; self-complementary, 2 copies of one strand

B1
stoichiometry N [1]: 2

B2
binding result [2]: binds
binding result [3]: binds

B3
binding result [4]: binds

B4
binding result [5]: binds
binding result (Dcr-2 DDNN;Loqs-PD): binds
binding result (Dcr-2 WT;Loqs-PD): binds
